Source: patent publication US20210155689A1 (SHANGHAI PHARMAEXPLORER, published 2021)

T1: human LAG-3 on cells (HEK293-hLAG-3 stable cell line) (human, UniProt P18627 23-525)
T1 sequence: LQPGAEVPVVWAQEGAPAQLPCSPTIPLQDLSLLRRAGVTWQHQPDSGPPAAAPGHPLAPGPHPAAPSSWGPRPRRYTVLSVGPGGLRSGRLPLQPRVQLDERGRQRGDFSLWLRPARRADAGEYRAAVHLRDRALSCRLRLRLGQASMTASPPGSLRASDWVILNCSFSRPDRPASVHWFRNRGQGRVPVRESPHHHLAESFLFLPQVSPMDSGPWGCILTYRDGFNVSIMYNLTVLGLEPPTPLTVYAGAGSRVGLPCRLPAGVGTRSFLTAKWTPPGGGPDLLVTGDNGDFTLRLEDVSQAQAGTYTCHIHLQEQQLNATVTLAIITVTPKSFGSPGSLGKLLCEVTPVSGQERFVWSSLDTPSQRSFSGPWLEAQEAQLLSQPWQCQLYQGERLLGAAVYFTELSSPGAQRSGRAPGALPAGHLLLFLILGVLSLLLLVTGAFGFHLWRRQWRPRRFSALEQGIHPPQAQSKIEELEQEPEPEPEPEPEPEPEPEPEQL

T2: human LAG-3 ECD (antigen protein of the affinity test) (human, UniProt P18627 23-450)
T2 sequence: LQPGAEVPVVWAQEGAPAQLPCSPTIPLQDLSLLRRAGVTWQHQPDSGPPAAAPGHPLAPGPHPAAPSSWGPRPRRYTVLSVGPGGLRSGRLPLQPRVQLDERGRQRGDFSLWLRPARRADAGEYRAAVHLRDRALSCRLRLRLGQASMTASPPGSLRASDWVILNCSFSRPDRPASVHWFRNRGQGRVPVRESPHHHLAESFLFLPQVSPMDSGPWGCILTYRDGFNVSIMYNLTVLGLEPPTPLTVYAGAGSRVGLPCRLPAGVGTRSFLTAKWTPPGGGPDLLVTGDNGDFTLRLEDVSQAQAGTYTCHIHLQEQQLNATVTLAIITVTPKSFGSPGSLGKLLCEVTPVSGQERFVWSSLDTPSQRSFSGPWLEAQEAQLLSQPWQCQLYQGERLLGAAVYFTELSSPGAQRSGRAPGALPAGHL


Tests used:
[1] = target: T1, human LAG-3 on cells (HEK293-hLAG-3 …); assay: FACS, HEK293-hLAG-3, antibody 1.6 nM
[2] = target: T1, human LAG-3 on cells (HEK293-hLAG-3 …); assay: FACS, HEK293-hLAG-3, antibody 0.32 nM
Excerpt: (§1) A. The binding of antibodies to LAG-3 expressing cells was detected by Flow cytometry (FACS), wherein the method was according to that of Example 5.

[3] = target: T1, human LAG-3 on cells (HEK293-hLAG-3 …); assay: FACS, HEK293-hLAG-3, antibody 0.013 nM
Excerpt: as §1

[4] = target: T1, human LAG-3 on cells (HEK293-hLAG-3 …); assay: FACS, HEK293-hLAG-3, antibody 8 nM
Excerpt: as §1

[5] = target: T1, human LAG-3 on cells (HEK293-hLAG-3 …); assay: FACS, HEK293-hLAG-3, antibody 0 nM
[6] = target: T1, human LAG-3 on cells (HEK293-hLAG-3 …); assay: FACS, HEK293-hLAG-3, antibody 0.064 nM
Excerpt: as §1

[7] = target: T2, human LAG-3 ECD (antigen protein of the …); assay: SPR, CM5 chip, antibody captured by anti-human Fc IgG, antigen in flow, 1:1 fit
Procedure: First, anti-human Fc IgG was immobilized on the surface of the CM5 chip to 6000-10000 RU by amino coupling method, with FC1 as the reference channel. The coupling process was as follows: a freshly prepared 1:1 mixture of 50 mM NHS and 200 mM EDC was activated for 7 minutes, then injected with 10-50 ug/ml anti-human Fc IgG diluted in 10 mM sodium acetate ph5.0 buffer. The remaining activated sites were blocked with 1M ethanolamine. Then, HBS-EP+ buffer was used to dilute the antibody to be tested to 5 ug/ml (adjustable according to the capture level) and the antibodies were captured on the chip at a flow rate of 10 ul/min to obtain a response value of about 100˜300 RU. Then the antigen protein was diluted to 100 nM (the highest concentration was tentatively 100 nM), and flew through the chip surface at a flow rate of 30 ul/min. If enough signal value was obtained, the antigen-protein was diluted by several concentration gradients, and flew through the chip surface respectively. At the end of each cycle, the chip surface was regenerated with 10 mM Glycine at pH 1.5. The kinetic rate constant needed to be subtracted from the blank control, and the data was fitted with the global fit analysis method 1:1 combination model. The dissociation equilibrium rate constant (KD) was calculated according to the following formula: KD=kd/ka.

[8] = target: T1, human LAG-3 on cells (HEK293-hLAG-3 …); assay: FACS, HEK293-hLAG-3, antibody 40 nM
Excerpt: as §1

| Binder | Mean fluorescence intensity [1] | Mean fluorescence intensity [2] | Mean fluorescence intensity [3] | Mean fluorescence intensity [4] | Mean fluorescence intensity [5] | Mean fluorescence intensity [6] | Kd [7] | koff [7] | kon [7] | Mean fluorescence intensity [8] |
| --- | --- | --- | --- | --- | --- | --- | --- | --- | --- | --- |
| 405B8H3-2 humanized antibody (antibody, V domains shown) VH: QVQLVQSGAEVKKPGASVKVSCKASGYTFTDYEMHWVRQAPGQGLEWMGATDPETGNSAYNQKFKGRVTMTADKSTSTVYMELSSLRSEDTAVYYCISTGWNDWGQGTTVTVSS VL: DIQMTQSPSSLSASVGDRVTITCKASQDINSYLSWFQQKPGKAPKSLIYRADRLLDGVPSRFSGSGSGTDFTLTISSLQPEDFATYYCLQYDEFPYTFGQGTKLEIK | 188 | 82 | 11 | 245 | 4 | 27 | 1.68 nM | 0.000184 s⁻¹ | 110000 M⁻¹ s⁻¹ | 272 |
| 405B8H3-8 humanized antibody (antibody, V domains shown) VH: QVQLVQSGAEVKKPGASVKVSCKASGYTFTDYEMHWVKQAPGQGLEWIGATDPETGNSAYNQKFKGKATMTADKSTSTAYMELSSLRSEDTAVYYCISTGWNDWGQGTTVTVSS VL: DIQMTQSPSSLSASVGDRVTITCKASQDINSYLSWFQQKPGKAPKSLIYRADRLLDGVPSRFSGSGSGQDYTLTISSLQPEDFATYYCLQYDEFPYTFGQGTKLEIK | 134 | 52 | 8 | 213 | 4 | 19 |  |  |  | 242 |
| 405B8H3-11 humanized antibody (antibody, V domains shown) VH: QVQLVQSGAEVKKPGASVKVSCKASGYTFTDYEMHWVRQAPGQGLEWIGATDPETGNSAYNQKFKGRATMTADKSTSTAYMELSSLRSEDTAVYYCISTGWNDWGQGTTVTVSS VL: DIKMTQSPSSLSASVGDRVTITCKASQDINSYLSWFQQKPGKSPKSLIYRADRLLDGVPSRFSGSGSGQDYTLTISSLQPEDFATYYCLQYDEFPYTFGQGTKLEIK | 164 | 71 | 11 | 220 | 4 | 25 |  |  |  | 230 |
| 405B8H3-3 humanized antibody (antibody, V domains shown) VH: QVQLVQSGAEVKKPGASVKVSCKASGYTFTDYEMHWVRQAPGQGLEWIGATDPETGNSAYNQKFKGRATMTADKSTSTAYMELSSLRSEDTAVYYCISTGWNDWGQGTTVTVSS VL: DIQMTQSPSSLSASVGDRVTITCKASQDINSYLSWFQQKPGKAPKSLIYRADRLLDGVPSRFSGSGSGTDFTLTISSLQPEDFATYYCLQYDEFPYTFGQGTKLEIK | 173 | 74 | 11 | 230 | 4 | 26 |  |  |  | 253 |
| 405B8H3-10 humanized antibody (antibody, V domains shown) VH: QVQLVQSGAEVKKPGASVKVSCKASGYTFTDYEMHWVRQAPGQGLEWMGATDPETGNSAYNQKFKGRVTMTADKSTSTVYMELSSLRSEDTAVYYCISTGWNDWGQGTTVTVSS VL: DIKMTQSPSSLSASVGDRVTITCKASQDINSYLSWFQQKPGKSPKSLIYRADRLLDGVPSRFSGSGSGQDYTLTISSLQPEDFATYYCLQYDEFPYTFGQGTKLEIK | 184 | 82 | 11 | 229 | 4 | 25 |  |  |  | 238 |
| 405B8H3-5 humanized antibody (antibody, V domains shown) VH: QVQLVQSGAEVKKPGASVKVSCKASGYTFTDYEMHWVRQAPGQGLEWMGATDPETGNSAYNQKFKGRVTMTRDTSTSTVYMELSSLRSEDTAVYYCISTGWNDWGQGTTVTVSS VL: DIQMTQSPSSLSASVGDRVTITCKASQDINSYLSWFQQKPGKAPKSLIYRADRLLDGVPSRFSGSGSGQDYTLTISSLQPEDFATYYCLQYDEFPYTFGQGTKLEIK | 174 | 62 | 9 | 243 | 4 | 21 |  |  |  | 257 |
| 405B8H3-12 humanized antibody (antibody, V domains shown) VH: QVQLVQSGAEVKKPGASVKVSCKASGYTFTDYEMHWVKQAPGQGLEWIGATDPETGNSAYNQKFKGKATMTADKSTSTAYMELSSLRSEDTAVYYCISTGWNDWGQGTTVTVSS VL: DIKMTQSPSSLSASVGDRVTITCKASQDINSYLSWFQQKPGKSPKSLIYRADRLLDGVPSRFSGSGSGQDYTLTISSLQPEDFATYYCLQYDEFPYTFGQGTKLEIK | 142 | 61 | 11 | 207 | 4 | 23 |  |  |  | 229 |
| 405B8H3-4 humanized antibody (antibody, V domains shown) VH: QVQLVQSGAEVKKPGASVKVSCKASGYTFTDYEMHWVKQAPGQGLEWIGATDPETGNSAYNQKFKGKATMTADKSTSTAYMELSSLRSEDTAVYYCISTGWNDWGQGTTVTVSS VL: DIQMTQSPSSLSASVGDRVTITCKASQDINSYLSWFQQKPGKAPKSLIYRADRLLDGVPSRFSGSGSGTDFTLTISSLQPEDFATYYCLQYDEFPYTFGQGTKLEIK | 151 | 63 | 10 | 217 | 4 | 23 |  |  |  | 251 |
| 405B8H3-9 humanized antibody (antibody, V domains shown) VH: QVQLVQSGAEVKKPGASVKVSCKASGYTFTDYEMHWVRQAPGQGLEWMGATDPETGNSAYNQKFKGRVTMTRDTSTSTVYMELSSLRSEDTAVYYCISTGWNDWGQGTTVTVSS VL: DIKMTQSPSSLSASVGDRVTITCKASQDINSYLSWFQQKPGKSPKSLIYRADRLLDGVPSRFSGSGSGQDYTLTISSLQPEDFATYYCLQYDEFPYTFGQGTKLEIK | 218 | 132 | 14 | 246 | 4 | 43 |  |  |  | 249 |
